{"source": "patent US20180273970A1", "about": "“PLASMID, TRANSFORMED PLANT CELL AND TRANSGENIC PLANT COMPRISING THE SAME, AND METHODS FOR PREPARING A TRANSGENIC PLANT AND FOR INCREASING YIELD OF A PLANT UNDER ABIOTIC STRESSES” (Academia Sinica, priority 2014, published 2018)", "molecules": {"B1": {"name": "SKIN1(1-83): truncated SKIN1 containing amino acids 1-83 (protein)", "chain": "MKLLSSIEQACDICRLKKLKCSKEKPKCAKCLKNNWECRYSPKTKRSPLTRAHLTEVESRLERLEQLFLLIFPREDLDMILKMDSLQDIKALLTGLFVQDNVNKDAVTDRLASVETDMPLTLRQHRISATSSSEESSNKGQRQLTVSMSTAVADVPPAAAYGFPGSAKRGKPEEVVVLMGKRRNEGFFIEEEEEEEEVLTESSSIGAPSPASSSIGENSGEEEGGDDEEE"}, "B2": {"name": "SnRK1A: rice Snf1-related protein kinase 1A, overexpressed from Ubi:SnRK1A effector (protein)", "chain": "MEGAGRDGNPLGGYRIGKTLGIGSFGKVKIAEHILTGHKVAIKILNRRKIKSMEMEEKVKREIKILRLFMHPHIIRLYEVIDTPADIYVVMEYVKSGELFDYIVEKGRLQEEEARRFFQQIISGVEYCHRNMVVHRDLKPENLLLDSKCNVKIADFGLSNVMRDGHFLKTSCGSPNYAAPEVISGKLYAGPEVDVWSCGVILYALLCGTLPFDDENIPNLFKKIKGGIYTLPSHLSPLARDLIPRMLVVDPMKRITIREIREHQWFTVGLPRYLAVPPPDTAQQVKKLDDETLNDVINMGFDKNQLIESLHKRLQNEATVAYYLLLDNRLRTTSGYLGAEFHESMESSLAQVTPAETPNSATDHRQHGHMESPGFGLRHHFAADRKWALGLQSRAHPREIITEVLKALQELNVCWKKIGHYNMKCRWSPSFPSHESMMHNNHGFGAESAIIETDDSEKSTHTVKFEIQLYKTRDEKYLLDLQRVSGPQLLFLDLCSAFLTQLRVL", "modifications": "left off: large carriers"}, "B3": {"name": "GBD-SKIN1 84-259 (other)", "chain": "MKLLSSIEQACDICRLKKLKCSKEKPKCAKCLKNNWECRYSPKTKRSPLTRAHLTEVESRLERLEQLFLLIFPREDLDMILKMDSLQDIKALLTGLFVQDNVNKDAVTDRLASVETDMPLTLRQHRISATSSSEESSNKGQRQLTVSVESKLKAEDEQVGLGCLDALEESLPIKRGLSNFYAGKSKSFTSLAEATASPAAAANELAKPENPFNKRRRILATWSRRASCSSLATATYLPPLLAPDHAVAEGDEGEEEDDDSDDDERQHRGKNGGRRESAAPPLPLPPPRLTLHTQMGGMVRRNGTFRSPRSLSLSDLQNSGGSC"}, "B4": {"name": "GBD-SKIN1 84-159 (other)", "chain": "MKLLSSIEQACDICRLKKLKCSKEKPKCAKCLKNNWECRYSPKTKRSPLTRAHLTEVESRLERLEQLFLLIFPREDLDMILKMDSLQDIKALLTGLFVQDNVNKDAVTDRLASVETDMPLTLRQHRISATSSSEESSNKGQRQLTVSVESKLKAEDEQVGLGCLDALEESLPIKRGLSNFYAGKSKSFTSLAEATASPAAAANELAKPENPFNKRRRILATWS"}, "B5": {"name": "GBD-SKIN1 160-259 (other)", "chain": "MKLLSSIEQACDICRLKKLKCSKEKPKCAKCLKNNWECRYSPKTKRSPLTRAHLTEVESRLERLEQLFLLIFPREDLDMILKMDSLQDIKALLTGLFVQDNVNKDAVTDRLASVETDMPLTLRQHRISATSSSEESSNKGQRQLTVSRRASCSSLATATYLPPLLAPDHAVAEGDEGEEEDDDSDDDERQHRGKNGGRRESAAPPLPLPPPRLTLHTQMGGMVRRNGTFRSPRSLSLSDLQNSGGSC"}}, "key": {"SKIN1": {"system": "SKIN1", "experiment": "Quantitative RT-PCR of SKIN1 mRNA in leaves of 2-week-old rice seedlings after stress or ABA", "type": "in vivo", "conditions": "6 h after salt stress (200 mM NaCl)", "procedure": "FIG. 9. The expression of SKIN is induced by various abiotic stresses and ABA, and SKINs promote the ABA sensitivity. (A) Total RNA was purified from leaves of 2-week-old rice seedlings that had been air dried, treated with 200 mM salt, incubated at 4° C., or treated with 1 μM ABA, or from embryos of seedlings grown underwater (hypoxia), for various lengths of time. RNAs were subjected to quantitative RT-PCR analysis using primers specific for SKIN1 and SKIN2. The highest mRNA level was set as 100%. The lowest mRNA level was assigned a value of 1× and mRNA levels of other samples were calculated relative to this value. Error bars indicate the SE for three replicate experiments. (B) Seeds of transgenic lines SKIN1-Ox(O3), SKIN1-Ri(R3), SKIN2-Ox(02) and SKIN2-Ri(R1) were germinated and grown in water containing various concentrations of ABA at 28° C. under a 14-h light/10-h dark cycle for 6 days. Lengths of shoots were measured. Error bars represent SE (n=8) at significance levels: * p<0.1, ** p<0.05. […]\nTotal RNA was extracted from leaves of rice seedlings with the Trizol reagent (Invitrogen) and treated with RNase-free DNase I (Promega, Madison, Wis.). […] The quantitative variation between different samples was evaluated by the delta-delta CT method, and the amplification of 18S ribosomal RNA was used as an internal control to normalize all data."}, "αAmy3 SRC promoter [1]": {"system": "αAmy3 SRC promoter", "experiment": "Rice embryo transient expression assay, SRC-35Smp:Luc reporter (luciferase)", "type": "cell-based", "conditions": "24 h; for Antagonism of SnRK1A function on αAmy3 SRC promoter: co-transfected with Ubi:SnRK1A, +S or −S", "procedure": "FIG. 3. The highly conserved GKSKSF domain (KSD) is essential for SKINs to antagonize the function of SnRK1A. Rice embryos were transfected with plasmids, incubated in medium with 100 mM glucose (+S) or without glucose (−S) for 24 h, and assayed for luciferase activity. The luciferase activity in rice embryos bombarded with the SRC-35S mp-Luc construct only and in +S medium was set to 1×, and other values were calculated relative to this value. Error bars indicate the SE for three replicate experiments. (A) Plasmid constructs. (B) Rice embryos were co-transfected with effector Ubi:SnRK1A, Ubi:SKIN1 or Ubi:SKIN(Ri) alone and reporter SRC-35Smp:Luc, or co-transfected with effectors Ubi:SnRK1A and Ubi:SKIN or Ubi:SKIN(Ri) and reporter SRC-35Smp:Luc. (C) Total cellular proteins were extracted from rice embryos transfected with Ubi:SnRK1A, Ubi:SKIN or Ubi:SnRK1A and Ubi:SKIN by particle bombardment and subjected to Western blot analysis using antibodies against SnRK1A and the HA tag fused to at the N-terminus of SKINs. (D) Rice embryos were co-transfected with effectors Ubi:SnRK1A and Ubi:SKIN1 (wild-type or truncated) and reporter SRC-35Smp:Luc. (E) Rice embryos were co-transfected with effectors Ubi:SnRK1A and Ubi:SKIN (wild-type, KSD deleted, or KSD replaced with 6 Ala) and reporter SRC-35Smp:Luc.\n(§1) FIG. 21. ABA and sorbitol suppress the function of SnRK1A in activation of αAmy3 SRC promoter. Rice embryos and barley aleurones were transfected with reporter SRC-35Smp:Luc with or without effectors, incubated with or without ABA for 24 h, and assayed for luciferase activity. The luciferase activity in embryos or aleurones bombarded with the SRC-35S mp-Luc construct only and in +S medium was set to 1×, and other values were calculated relative to this value. Error bars indicate the SE for three replicate experiments. (A) Plasmid constructs. (B) Barley aleurones were transfected with effector Ubi:SnRK1A, Ubi:SKIN1 or Ubi:SKIN(Ri) alone and reporter SRC-35Smp:Luc, or co-transfected with effectors Ubi:SnRK1A and Ubi:SKIN or Ubi:SKIN(Ri) and reporter SRC-35Smp:Luc. (C) Rice embryos (upper panel) were transfected with or without Ubi:SnRK1A and incubated with or without 1 μM ABA or 50 mM sorbitol, and barley aleurones (lower panel) were transfected with or without Ubi:SnRK1A and incubated with 5 μM ABA or 400 mM sorbitol.\nRice embryos were prepared for particle bombardment as described (Chen et al., 2006). The rice embryos were bombarded with reporter, effectors and internal control at a ratio of 4:2:1 for single effector or 4:2:2:1 for two effectors. The internal control (Ubi::GUS) was used to normalize the reporter enzyme activity because different transformation efficiency might occur in each independent experiment. Bombarded rice embryos were divided into two halves, with half being incubated in MS liquid medium containing 100 mM Glc, and the other half grown in MS liquid containing 100 mM mannitol, for 24 h. Total proteins were extracted for embryos with a cell lysis buffer [0.1 M K-phosphate, pH 7.8, 1 mM EDTA, 10% glycerol, 1% triton X-100, and 7 mM β-mercaptoethanol]. GUS assay buffer [0.1 M Na-phosphate, 20 mM EDTA, 0.2% sarcosine, 0.2% Triton X-100, and 20 mM β-mercaptoethanol] was used for GUS activity assay. The activity assay of GUS and luciferase were described elsewhere (Lu et al., 1998). All bombardments were repeated at least three times."}, "αAmy3 SRC promoter [2]": {"system": "αAmy3 SRC promoter", "experiment": "Barley aleurone transient expression assay, SRC-35Smp:Luc reporter (luciferase)", "type": "cell-based", "conditions": "barley aleurones, 5 μM ABA or 400 mM sorbitol, 24 h", "procedure": "as §1\nThe barley aleurone/endosperm transient expression assays were performed as described (Hong et al., 2012). Each independent experiment consisted of three replicates, with six endosperms for each treatment, and was repeated three times with similar results. Luciferase and GUS activity assays were performed as described (Hong et al., 2012). […]"}, "[3]": {"biological_target": "T1, GAD-SnRK1A (full-length SnRK1A 1-505 fused to the Gal4 activation domain) (rice, UniProt Q852Q2 1-505)", "T1 construct": "range 1-505", "T1 sequence (looked up)": "B2 chain", "experiment": "yeast two-hybrid, GBD-SKIN1 truncation with GAD-SnRK1A", "text": "FIG. 14. The N-terminal amino acids 1-83 of SKIN1 interact with the kinase and autoinhibitory domains of SnRK1A in yeast. (A) Plasmid constructs ADH1:GAD-SnRK1A and ADH1:GBD-SKIN1 (wild type or deletion at N- or C-terminus) were used as effectors, and Mel1:LacZ, Mel1:Mel1 and Gal1:HIS3 were used as reporters. (B) The N-terminus of SKIN1 interacts with SnRK1A in the yeast two-hybrid assays. (C) The kinase domain (KD) and auto-inhibitory domain (AID) of SnRK1A interact with SKIN1 and SKIN2. Yeast strain AH109 containing GAD-SnRK1A or GAD alone (-) was mated with yeast strain Y187 containing various GBD-SKIN1 constructs or GBD alone (-). The interaction between p53 and large T-antigen (T-Ag) was used as a positive control."}}}
{"molecule": "[Cl-].[Na+]", "note": "[salt, NaCl]", "values": [{"measurement": "Induction of SKIN1 mRNA accumulation", "setting": "SKIN1", "result": "≤ 2.3", "unit": "fold"}]}
{"molecule": "OC[C@@H](O)[C@@H](O)[C@H](O)[C@@H](O)CO", "note": "[sorbitol]", "values": [{"measurement": "Effect on αAmy3 SRC promoter (luciferase activity), alone and SnRK1A-activated", "setting": "αAmy3 SRC promoter [1]; rice embryos, 1 μM ABA or 50 mM sorbitol", "result": "suppressed"}, {"measurement": "Effect on αAmy3 SRC promoter (luciferase activity), alone and SnRK1A-activated", "setting": "αAmy3 SRC promoter [2]", "result": "suppressed"}]}
{"molecule": "B1", "values": [{"measurement": "Antagonism of SnRK1A function on αAmy3 SRC promoter", "setting": "αAmy3 SRC promoter [1]", "result": "did not antagonize"}]}
{"molecule": "B2", "values": [{"measurement": "αAmy3 SRC promoter activity on overexpression of the effector", "setting": "αAmy3 SRC promoter [1]; 100 mM glucose (+S) or without glucose (−S)", "result": "enhanced"}]}
{"molecule": "B3", "values": [{"measurement": "binding result", "setting": "[3]", "result": "no binding"}]}
{"molecule": "B4", "values": [{"measurement": "binding result", "setting": "[3]", "result": "no binding"}]}
{"molecule": "B5", "values": [{"measurement": "Antagonism of SnRK1A function on αAmy3 SRC promoter", "setting": "αAmy3 SRC promoter [1]", "result": "did not antagonize"}, {"measurement": "binding result", "setting": "[3]", "result": "no binding"}]}
